A short description of the series: yeast display, Sf9 membrane polyspecificity reagent, FACS + sequencing; frameworks hold sequencing errors. Put shortly:
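In a synthetic yeast display library (Saccharomyces cerevisiae BJ5465), nanobody expression was induced with galactose for 36–48 hours. FACS gates were set low and high (top ~1%) using anti-HA fluorescence for expression and streptavidin fluorescence for binding of the Sf9 membrane reagent. Each polyreactivity label is drawn from the gate of origin.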
For “QVQLVESGGGLVQAGGSLRLSCAASGFIFYLYTMGWYRQAPGTEMEVVAAITQSGTRTYYADSVKGRFTISRDNAKNTVYLQMNSLKPVDTAVYYCAAEWGSSYRWGMDYWGQGTQVTVSS”, the “polyreactivity (PSR sort gate)” value was “high polyreactivity”.
The value for “QVQLVDSGGALVQAGGSLRLSCAASGFIFRDNAMGWYRQAPGKESELVAAISSRGGSTYYADSVKGRFTISRDYAKNSVYLQMNRLKPEDTAVYYCAIRPYKSRVQMDCWGQGTQVTVSS” was “high polyreactivity”; that for “QVQLVDSGGALVQAGGSLRLSCAASGPTFYTKTMGSYRQAPGKERELVAVISSGGGSTYYSDSVKGRFTISRDNAKNTVYLQMNSLKPEDTAVYYCAKRRGGQGNYWGQGPQVTVSS” was “high polyreactivity”.
On to “QVQLVESGGGLVQAGGSLRLSCAASGRLFVYNAMGWYRQAPGKERELVASISWSGDSTYADSVKGRFTISRDNAKNTVYIQMNSLKPEDTAVYYCAAYSQADYQNMDYWGQGTQVTVSS”, for which the “polyreactivity (PSR sort gate)” value was “low polyreactivity”.
With “QVQLVESGGGLVQAGGSLRLSCAASGSTFRANVMGWYRQAPGKEWELVAAITSGGGSTYYADSVKGRFTISRDNAKNTVYLQMNSLKPEDTAVYYCATKRARYSYYYWGQGTQVTVSS”, the “polyreactivity (PSR sort gate)” value is “high polyreactivity”.
As to “QVQLVESGGGLVQAGGSLRLRCAASGSIFAHYTMGWYRQAPGKERELVAVISRSGARTYYADSVKGRFTISRDNAKNTVYLQMNSLKPEDTEVYYCAADRTLEEDYWGQGTQVTVSS”, the “polyreactivity (PSR sort gate)” value is recorded as “low polyreactivity”.
Then “QVQLVESGGGLVQAGGSLRLSCGASGFTFQNYAMGWYRQARGKERELVAAIDSRGGRTYYADSVKGRFTISRDNAKNTVYLQMNSLKPEDTSVYYCAVAENKRCGAVGYYYWGQGTQVTVSS”, with “low polyreactivity”; and “QVQLVESGGGLVQAGGSLRLSCAASGSTFQGYAMGWYRQAPGKERELVAAISWNGGSTYYADSVKGRFTISRDNAKNTVYLQMNSLKPEDTAVYYCAAYSFAYRFNYWGQGTQVTVSS”, with “high polyreactivity”; and “QVQLVESGGGIVQAGGSLRLSCAASGSTFTLYAMGWYRQAPGQERELVAAITSDDSTYYADSVKGRFTISRDNAKNTVYLQMNSLKPEDTAVYYCAADVYYGDYEMDYWGQGTQVTVSS”, with “low polyreactivity”.
Then “QVQLVESGGGLVQAGGSLRLSCAASGRIFRKYAMGWYRQAPGKERELVAVINDRGGSTYYADSVKGRFTISRDNAKNTVYLQMNSLKPEDTAVYYCNATGPKKDTARYDYWGQGTQVTVSS”, with “low polyreactivity”; and “QVQLVESGGGLVQAGGSLRLSCAASGFTFALYAMGWYRQAPGKERELVASIDNGVSTNYADSVKGRFTISRDNAKNTVYLQMTSLKPEDTAVYYCAKGPGYGLYKLLSYDSWGQGTQVTVSS”, with “low polyreactivity”; and “QVQLVESGGGLVQAGGSLRLSCAASGLTLTPYVMGWYRQAPGKEREFVAAITYTGGRTYYADSVKGRFTISRDNAKNTVYLKMNSLKPEDTAVYDCNKGYYQTWPRYYSWGQGTQVTVSS”, with “high polyreactivity”.
Then “QVQLVDSGGGLVQAGGSLRLTCAASGSIFPRNVMGWYRHAPGKERELVAAISSRATRTYYADSVKGRFTISRDNAKNTVYLQMNSLKPEDTAVYYCAADRTLYSSGYYYWGQGSQVTVSS”, with “high polyreactivity”.
Regarding “QVQLVESGGGLVQAGGSLRLSCAASGSIFRGYAMGWYRQAPGKERELVAAISIGGRTYYADSVKGRFTISRDNAKNTVYLQMNSLKPEDTAVYYCAVQKPKTGKGKKDTYGRDGYWGQGTQVTVSS”, the “polyreactivity (PSR sort gate)” value was “high polyreactivity”.
As for “QVQLVESVGGLVQAGGSLRLSCAASGRIFKWYAMGWYRQAPGKERELVAAITSGGGSTYYADSVKGRFTISRDNAKNTVYLQINSLKPEDTAVYYCNAKAPAEIRSYLRTSRYDYWGQGTQVTVSS”, the “polyreactivity (PSR sort gate)” value is “high polyreactivity”.
The value for “QVQLVESGGGLVQAGGSLRLSCAASGRTFYYYARGWYRQAPGKERELVAAISSRGGSTYYADSVKGRFTISRDNAKNTVYLQMNSLKPEDTAVYYCAAERYFVLYRYYSYAYYYWGQGTQVTVSS” was “high polyreactivity”; that for “QVQLVESGGGLVQAGGSLRLSCAASGSTFSQYVMGWYRQAPAKERELVAAISSGGSTYYADSVKGRFTISRDNAKNTVYLQMNSLKPEDTAVYYCAAKYDGSYVGLYWYSMNYWGQGTQVTVSS” was “low polyreactivity”.
Then “QVQLVESGGGLVQAGGSLRLSCAASGSTFKPNVMGWSRLAPGKERELVAAITSTDDPTYYADSVKGRFSISRDNAKNTVYLQMNSLKPEDTAVDYCAVESLRDDFEYDYWGQGTQVTVSS”, with “low polyreactivity”.
For “QVQLVESGGGLVQAGGSLRLSCAASGSTFKAYAMGWYRQAPGKERELVAAITRRGTSTYYADSVKGRFTISRDNAKNTDYFQMNRLKPEDTAVFYCNAKYVSDRSSAVSFDYWVQGTQVTVSS”, the “polyreactivity (PSR sort gate)” value is recorded as “low polyreactivity”.
The value for “QGQRVESGGGLVQAGGSLRLSCAASGLIFSRYGMGWYRPARGKDRELVAAISGGGGSTYYADSVKGRFTISRDNAKNTVYLEMNSLKPEDTAVYYCARKYTRKIPASDYWGQGTQVTVSS” was “high polyreactivity”.
The value for “QEQLVESGGGLDQAGGSLRLICDASGFTFLGYAMGWYRQAPGKERELVAAITSGGRTNYADSVKGRFTISRDNAKNTVYLQMNSLKPEDTAVYYCAAYRWDYYYWGQGTQVTVSS” was “high polyreactivity”; that for “QVQLVESGGGLVQAGGSLRLSCAASGRIFQGYAMGWYRKAPGKERELVAAIRSGSGSTYYADSVKGRFTISRDNAKNTVYLQMNSLKPEDTAVYYCAADRYYWGQGTQVTVSS” was “low polyreactivity”.
As to “QVQLVESGGGLVQAGGSLRLSCAASGSTFRRNAMGWYRQAPGKERELVAAISGSGGSTYYADSVKGRFTISRDNAKNTVYLQMNSLKPEDTAVYYCAARVVKNYKSDSWGQGTQVTVSS”, the “polyreactivity (PSR sort gate)” value is on record as “high polyreactivity”.
Consider “QLQLVESGGGLVQAGGSLRLSCAASGSILGSYAMGWYRQAPGKERELVAAITRRGSSTYYADSVKGRFTISRDNAKNTVYLQMNSLKPEDTAVYYCAVYRRWYSGLYDYWGQGTQVTVSS”, for which the “polyreactivity (PSR sort gate)” value is “high polyreactivity”.
Regarding “QVQLVESGGGLVQAGGSLRLSCAASGSTLVTYAMAWYRQAPGKERELVAAISGGTGTDYADSVKGRFTISRDNAKNTVYLQMNSLKPEDTAVYYCAAKSSSNKVDYYYWGQGSQVTVSS”, the “polyreactivity (PSR sort gate)” value was “low polyreactivity”.
Take “QVQLVESGGGLVQAGGSLRLSCDASGRTFSSNAMGWYRQAHGKERELVAAISFRGGRTFYADSVKGRFTISRDNAKNTVYLQMNSLKPEDTAVYYCNAVPETRTYDYWGQGTQVTVSS”: the “polyreactivity (PSR sort gate)” value is on record as “high polyreactivity”.
The value for “QVQLVDSGGGIVQEGGSRRLSCAASGSIFVNYAMGWYRQAPGKERELVAAITLRGVSTFYADSVKGRFTISRDNAKNTVYLQMNSLKPEETAVYYCAASSLRYRAYKSLFDYWGQGTQVTVSS” was “low polyreactivity”; that for “QVQLVESGGGLVQAGGSLRLSCAASGSTFYPYAMGWYRQAPGKERELVAGIRSGGSTNYADSVKGRFTISRDNAKNTVYLQMNSLKPEDTAVYYCAARRWRTQDRSHFDYWGQGTQVTVSS” was “low polyreactivity”; that for “QVQLVESGGGLVQAGGSLRLSCAASGRTFYKYGMGWYRQAPGKERELVASISSGGNTYYADSVKGRFTISRDNAKNTVYLQMNSLKPEDTAVYYCNAGYWAKFDYWGQGTQVTVSS” was “high polyreactivity”.
Turning to “QVQLVESGGGLVQAGGSLRISCAASGFIFPWYTMGWYRQAPGKERELVAVINQSGGSTYYADSVKGRFTISRDNAKNTVYLQMNSLKPEDTAVYYCAARLVKQYYYWGQGTQVTVSS”, the “polyreactivity (PSR sort gate)” value is given as “high polyreactivity”.
Then “QVQLVESGGGLVQAGGSLRLSCAASGSTFYYNAMVWYRQAPGKEREFVASISWRGGRTYYADSVKGRFTISRDNAKNTVYLQMNSLKQEDTAVYYCAKGYLALGQPDDYWGQGTQVTVSS”, with “high polyreactivity”; and “QVQLVESGGGLVQAGGSLRLSCAASGYTFPRYAMGWYRQAPGKERELVATINWTGSNTYADSVKGRFTISRDNAKNTVYLQMNSLKPEDTAVYYCAKDSWNVRSGRYNYWGQGTQVTVSS”, with “low polyreactivity”.
Turning to “QVQLVESGGGLVQAGGSLSLSCAASGRIFYYNAMGWYRQAPGKERELVAAITRGGSTYYADSVKGRFTISRDNAKNTVYLQMNSLKPEDTAVYYCAADRTGYSRYTTSVKGQRYYYWGQGTQVTVSS”, the “polyreactivity (PSR sort gate)” value is “high polyreactivity”.
Then “QVQLVESGGGLVQAGGSLRLSCAASGITFGGNAMGWYRQDPGKERELVAAISSSGGSTYYADSVKGRFTISRDNAKNTVYLQMNSLKPEDTAVYYCAARNRYPLRFYYWGQGTQVTVSS”, with “high polyreactivity”.
Then “QVQLVESGGGLVQAGGSRRLSCAASGFFFRNYAMGWYRQAPGKEMELVAVITSSGGSTYYADSVKGRFTISRDNAKNTVYLQMNSLKPEDTAVYYCNKPGLRSGPRYDYWGQGTQVTVSS”, with “high polyreactivity”.
As to “QVQLVESGGGLVQAGGSLRLSCAASGSTFHLYAMGWYRQAPGKERELVADIDLSGGSTYYADSVKGRFTISRDNAKNTVYLQMNSLKPEDTAVYYCAADHVSSLGFDYWGQGTQVTVSS”, the “polyreactivity (PSR sort gate)” value is listed as “low polyreactivity”.
The value for “QVQLVESGGGLVQAGGSLRLSCAASGRIFGYNAMGWYRQAPGKERELVAAIRRRGGTTYYADSVKGRFTISRDNAKNTVYLQMNSLKPEDTAVYYCNTKYPGRGYYWGQGTQVTVSS” was “high polyreactivity”; that for “QVQLVESPGGLVQAGGSLRLSCAASGRTFYRNAMGWYRQAPGKERELVAVISLNGGRTYYADSVKGRFTISRDNAKNTVYLQMNSLKPEDTAVYYCNKLTGPVFTRGFYYWGQGTQVTVSS” was “high polyreactivity”; that for “QVQLVESGGGLVQAGGSLRLSCAASGFTFFLYAMGWYRQAAGKERELGAAINSRGGSTYYADSVKGRFTLSRDNAKNTVYLQMNSLKPEDTAVYYCAAYIPRSYCGYDYGGQGTQVTVSS” was “high polyreactivity”.
Take “HVQLVESGGGVVQAGGSLRLSCAASGIIFYYYTMGWYRHAPGKQRELVAAISTSGGRTYYADSVKGRFTISRDTAKNTVYLQMNSLKPEDTAVYYCNARSRHTTLDYWGQGTQVTVSS”: the “polyreactivity (PSR sort gate)” value is “high polyreactivity”.
The value for “QVQLVESGGGLVQAGGSLRLSCAASGIIFGRYAMGWYRQAPGKERELVAAITRSGGRTYYADSVKGRFTISRDNAKNTVYLQMNSLKPEDTAVYYCAADASGHSYDYWGQGTQVTVSS” was “high polyreactivity”.

The values above are taken from the nanobody polyreactivity screen of Harvey et al. (2022).
